Test results as given in article PMC7613265, “Multi-scale ensemble properties of the Escherichia coli RNA degradosome” (Molecular microbiology, 2021).

Target: the molecule itself
Experiment: cryo-EM structure; single particle analysis of RNase E (1-529) at 10 uM without RNA, 8 mM CHAPSO; 7.8 A reconstruction, C1

B1: RNase E catalytic domain (1-529) (domain or fragment)
chain: not shown
notes: RNase E, E. coli, catalytic domain, residues 1-529; Studied without RNA; 8 mM CHAPSO added before grid freezing; also called RNase E catalytic core; RNase E (1-529); source: E. coli BL21(DE3), plasmid pRne529-N, purified (Ni chelating column, gel filtration)
- stoichiometry N: 4
